A short description of the series: yeast display, Sf9 membrane polyspecificity reagent, FACS + sequencing; frameworks hold sequencing errors. The procedure, abridged: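 A synthetic nanobody library was expressed on Saccharomyces cerevisiae BJ5465 by galactose induction for 36–48 hours. The library was stained for 1 hour at 4 °C with 10% biotinylated, detergent-solubilized Sf9 membrane reagent and enriched with streptavidin microbeads before FACS. Low and high (top ~1%) gates were set on anti-HA fluorescence for expression and streptavidin fluorescence for reagent binding, and each polyreactivity label reflects the gate of origin.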
On to “QVQLVESGGGLVQAGGSLRLSCAASGIPRNTMGWYRQAPGKERELVASISTSGGSTYYADSVKGRFTISRDNAKNTVYLPMNSLKPEDTAVYYCAKKGYASRYFIYDYWGQGTQVTVSS”, for which the “polyreactivity (PSR sort gate)” value is recorded as “low polyreactivity”.

Turning to “QVQLVESGGGLVQAGGRLRLSSAASGRTFFGSYAMGWYRQAPGKERELVADIRSGGNTNYADSVKGRFTISRDNAKNTVYLQMNRLKPDDTAVYYCASDGYSIVVYHPDYRYVYWGQGTQLTVSS”, the “polyreactivity (PSR sort gate)” value is “low polyreactivity”.

Take “QVQLVESGGGLVQAGGSLRLICAASGFIFFSNAMGWYRQAPGKERELVAVIDRATSTYYADSVKGRFTISRDNAKNTFYLQLNSLKPEDTAVYYCNADGEEVYDFNYFLSFKGDYWGQGTQVTVSS”: the “polyreactivity (PSR sort gate)” value is on record as “low polyreactivity”.

Regarding “QVQLQESGGGLVKAGGSLRLSCAASGNISPRDAMGWYRQAPGEERDLVASNAYSAITYYADCVKGRYTISRDNAKNTVYLQINSLKPEDTEVYYCAVYQFTYPVFPAYWGQGTQVTVSS”, the “polyreactivity (PSR sort gate)” value is “low polyreactivity”.

Take “QVQLVESGGGLVQAGGSLSLSCAASGSNFVKNAMGWYRPAPGKERELVATISTGGSTYYADSVKGRFTISRDNAKNTVYLQMNSLKPEDTAVYYCATDFYPRFLLRSYRPYYYWGQGTQVTLSS”: the “polyreactivity (PSR sort gate)” value is listed as “low polyreactivity”.

“QVQLVESGGGLVQAGGSLRLSCAASGRIFPRYAMGWYRQAPGKERELVARITRRGGITYYADSVKGRFTISRDNAKNTVYLQRNSLIPEDTAVYYCNVDYYSGGEFSYGYDYWGQGTQVTVSS”: the “polyreactivity (PSR sort gate)” value is listed as “high polyreactivity”.

For “QVQLVESGGGLVQAGGSLRLSCAASGSIFTFNTMGWYRQAPGKERELVATISSGGRTYYADSVKGRFTISRDNAKNTVYLQMNSLKPEDTAVYYCNKGYYGYTYVEYNYWGQGTQVTVSS”, the “polyreactivity (PSR sort gate)” value is “low polyreactivity”.

Regarding “QVQLVESGGGLGQAGGSLRLSCAASGSIFSFYAMGWYRQAPGKERELVAVINTDGDNTYYADSVKGRFTISRDNAKNTVYLQMNSLKAEDSAVYYCAASVSSYSYTRGGYWGQGTQVTVSS”, the “polyreactivity (PSR sort gate)” value was “high polyreactivity”.

Consider “QVQLVESGGGLVQAGGSLRLSCAASGNTFKYYAMGWYRQAPGKERELVATISRTAGSTYYADSVKGRFTISRDNAKNTVYLQMNSLKPDDTAVYYCNKDRGHPFKYDYWGQGTQVTVSS”, for which the “polyreactivity (PSR sort gate)” value is recorded as “low polyreactivity”.

In the case of “QVQLQESGGGLVQEGGSLRLSCASSGNISPPADMGWYRQAPGKERELVASMGTGGTTNYADSVKGRFTISRDNAKNTVYLQMNSLKPDDTAVYYCAAVRYEYNPYDYWGQGTQVTVSS”, the “polyreactivity (PSR sort gate)” value is on record as “low polyreactivity”.

On to “QVQLVETGGGLVQAGGSLRLSCAASGSIFKNNAMGGYRQAPGKERELVAAIRSYGGSTYYADSVKGRFTISRDNAKNTVYLQMKSLKPEDTAVYYCAARYRSYPTYYQYNYWGQGTQVTVSS”, for which the “polyreactivity (PSR sort gate)” value was “high polyreactivity”.

As to “QVQLVESGGGLVQAGGSLRLSCAASGRIFGVYAMGWYRQAPGKERELVAAISFSGGRTYYADSVKGRFTISRDNAKNTVYLQMNSLKPEDTAVYYCSALGPYDWLWAGDYWGQGTQVTVSS”, the “polyreactivity (PSR sort gate)” value is recorded as “low polyreactivity”.

As for “QVQLVESGGGLVQAGGSLRLSCAASGSNMGDNGMGWYRKAPGKERELVAAITNGGSTTYADSVKGRFTISRDNAKNTVYLQMNSLKPEDTAVYYCAADQQDRDQYSDWTEYDYWGQGTQVTVSS”, the “polyreactivity (PSR sort gate)” value was “low polyreactivity”.

With “QVQLVESGGGLVQAGGSLRLSCAASGLIFVINAMGWYRQAPGKERELVATISSGVSTNYADSVKGRFTISRDNAKNTVYLQMNSLKPEDTAVYYCKKGQTVSRGYRLYERYDYWGQGTQVTVSS”, the “polyreactivity (PSR sort gate)” value is reported as “low polyreactivity”.

On to “QVQLVESGGGLVQAGGSLRLSCAASGRTFGYYAMGWYRQAPGKERELVAAISRSGGSTYYADSVKGRFTISRDNAKNTVYLQMNSLKPEDTAVYYCAVKGYVKSDYWGQGTQVTVSS”, for which the “polyreactivity (PSR sort gate)” value is recorded as “high polyreactivity”.

Regarding “QVQLVESGGGLLQAGGSLRLSCAASGSTFDSYAMGWYRQAPGKERELVAAITNGGSTYYADSVKGRFTISRDNAKNTVYLQMNSLKPEDTAVYYCATDDYLLDYLYDYWGQGTQVTVSS”, the “polyreactivity (PSR sort gate)” value is reported as “low polyreactivity”.

“QVQLVESGGGLVQAGGRLRLSCAASGTTAENVMGWYRQAPGKERELVAAISSRGGSTYYADSVKGRFTISRDNAKNTVYLQKNSLKPEDTAVYYCAAEYVSHFSGYRYDYWGQGTHVTVSS”: the “polyreactivity (PSR sort gate)” value was “low polyreactivity”.

Consider “QVQLVETGGGLVQAGGSLRLSCAASGFIVAEYAMGWYIQAPGKERELVAAITRSGGRTYYADSVKGRFTISRDNAKNTVYLQMNSLKPEDTAVYYCAAGLGYPRLYYWGQGTQVTVSS”, for which the “polyreactivity (PSR sort gate)” value is given as “high polyreactivity”.

“QVQLVESGGGLVQAGGSLRLSCSASGRTNWLNAMGLYRQAPGKERELVATISSSSGSTTYADSVKGRFTISRDNAKNTVYLQMNSLKPEDTAVYYCNVDDPFYSGVVEFDYWGQGTQVTVSS”: the “polyreactivity (PSR sort gate)” value is recorded as “low polyreactivity”.

As to “QVQLVESGGGLVQAGGSLRLSCAASGRTFAPYAMGWYRQAPGKERELVAAITSGGSTYYADSVKGRFTISRDNAKNTVYLQMNSLKPEDTAVYYCAAKFVGTTVSEYGYWGQGTEVTVSS”, the “polyreactivity (PSR sort gate)” value is “low polyreactivity”.

For “PVQLVESGGGLVQAGGSLRLSCAASGITIISYAMVWYRQAPGKERELVAAITKSGGRTYYADSVKGRFTISRDNAKNTVYLQMNSLKPEDTAVYYCAAYHLRDNRIGGGYWGQGTQVTVSS”, the “polyreactivity (PSR sort gate)” value is on record as “high polyreactivity”.

As for “QVQLVESGGGLVQAGGSLRLSCAASGRIFRSYALGWYRQAPGKERELVAAISSSDGSTYYADSVKGRFTISRDNAKNTVYLQMNSLKPEDTAVYYCNAEQVCYTYGRYPEWYLYGYWGQGTQVTVSS”, the “polyreactivity (PSR sort gate)” value is “low polyreactivity”.

As for “QVQLVESGGGLVQAGGILRLSCAASGSIYSGYAMGWYIQAPAKEREFVAAITSTSGSTYYADSVKVRFTISRDNAKNSVYLQMNSLKPEDTAVYYWAGYRYRYYSYDSWGQGTHVTVSS”, the “polyreactivity (PSR sort gate)” value is “high polyreactivity”.

Turning to “QVQLVESGGGLVQAGGSLRLSCAASGLTFYAYVMGWYRPAPGNERELVAAISGGGSTYYADSVKGRFTISRDNAKNSVYLEMISLKPEDTAVYYCNAELSLWDLGYDYWVQGTQVTVSS”, the “polyreactivity (PSR sort gate)” value was “low polyreactivity”.

In the case of “QVQLVESGGGLVQAGGSLRLSCAASGSTFVRNAMGWYRQAPGKERELVAAISRSGGRTYYADSVKGRFTISRDNAKNTVYLQMNSLKPEDNAVYYCNAVLGYYSYDYWGQGTQVTVSS”, the “polyreactivity (PSR sort gate)” value is “high polyreactivity”.

Turning to “QVQLVESGGGLVQAGGSLRLSCAASGRIFTRYAMGWYRQAPGKERELVATISRGGNTNYADSVKGRFTISRDNAKNTVYLQMNSLKPEDTAVYYCAKYPVSRVGGYGYWGQGTQVTVSS”, the “polyreactivity (PSR sort gate)” value was “low polyreactivity”.

With “QVQLVESGGGLVQAGGSLRLSCAASGSTFRGYVMGWYRQAPGKERELVAAISRSGTSTYYADSVKGRFTISRDNAKNTVYLQMNSLKPEDTAVYYCAAQLYGHGEDYWGQGTQVTVSS”, the “polyreactivity (PSR sort gate)” value is recorded as “high polyreactivity”.

“QVQLVESGGGLVQAGGSLRLSCAASGRIFKYYAMGWYRQAPGKERELVAAISRSGGRTYYADSVKGRFTISRDNAKNTVYLQMNSLKPEDTAVYYCNARVYSGHNYWGQGTQVTVSS”: the “polyreactivity (PSR sort gate)” value is given as “high polyreactivity”.

As for “QVQLVESGGGIVQAGGSLRLSCAASGIIIQYYAMGWYRQAPGKERELVAAISWSGGSTYYADSVKGRFTISRDNAKNTVYLQMNSLKPEDTAVYYCAARSRSYWPYEGDYWGQGTQVTVSS”, the “polyreactivity (PSR sort gate)” value was “low polyreactivity”.

In the case of “QVQLVESGGGLVQAGGSLRLSCAASGSTFESNTMGWYIQAPGKERELVAAISYSGGRTYYADSVKGRFTISRDNAKNTVYLQMNSLKPEDTAVYYCAARTFRISRMDYWGQGTQVTESS”, the “polyreactivity (PSR sort gate)” value is recorded as “high polyreactivity”.

With “QVQLVESGGGLVQAGGSLRLSCAASGSTFPWYDMGWYRQAPGKERELVADISGGTRTYYADSVKGRFTISRDNAKNTVYLQMNSLKPEDTAVYYCAVGYYWNEPLYWYGDFDYWGQGTQVTVSS”, the “polyreactivity (PSR sort gate)” value was “high polyreactivity”.

In the case of “QVQLVESGGGLVQAGGSLRLSCAASGLTFVDNAMGWYRQAPGQERELVAAITKRGGRTYYADSVKGRFTISRDNAKNTVYLQMNSLKPEDTAVNYCARESGNDSSRRLDYWGQGSQVTVSS”, the “polyreactivity (PSR sort gate)” value is “low polyreactivity”.

“QVQLVESGGGLVQAGGSLRLSCAASGRIFTDYAMGWYRQAPGKERELVAAISSGGSTYYADSVKGRFTISRDNAKNTVYLQMNSLKPEDTAVYFCAAELFYGRSSSGYYYWGQGTQVTVSS”: the “polyreactivity (PSR sort gate)” value was “high polyreactivity”.

In the case of “QVQLVESGGGLVQAGGSLRLSCAASGRTFSYNAIGWYRQAPGKERTNYADSVKGRFTISRDNAKNTVYLQMNSLKPEDTAVYYCAVEPYLSYPPTSIDNDYDYWGQGTQVTVSS”, the “polyreactivity (PSR sort gate)” value is “low polyreactivity”.

For “QVQLVESGGGLVQAGGSLRLSCAASGSTFTGNSMGWYRQAPGKERELVAAISSSGASTYYADSVKGPFTISRDNAKNTVYLQMNSLKPEDTAVYYCAAELFYYPTPFREYDYWGQGTQVTVSS”, the “polyreactivity (PSR sort gate)” value is “low polyreactivity”.

With “QVQLVESGGGLVQAGGSLRLSCAACGSTFGYNAMGWYRQAPGKERELVADISWSGGTTYYADSVKGRFTISRDNAKNTVYLQMNSLKPEDTAVYYCNARYPDRPVQGWRVEVDYWGQGTQVTVSS”, the “polyreactivity (PSR sort gate)” value is on record as “high polyreactivity”.

With “QVQLVESGGGLVQAGGSLRLSCAASGRTLYNYAKGWYRQAPGKERELDASITWSGGSTYYADSVKGRFTISRDYANNTVYLQMNSLKPEDTAVYYCAAESSPGTFVRYGYRRYYYWGQGTQVTVSS”, the “polyreactivity (PSR sort gate)” value is “low polyreactivity”.

“QVQLVESGVGLVQAGGSLRLSSAASGFTFVSNDMGWYRQAPGKERELVAAIRYRGGDTYYADSVKGRFTISRDNAKNTVYLQMNSMKPEDTAVYYCAVDVATYTAGWYYHGYDYWGQGTQVTVSS”: the “polyreactivity (PSR sort gate)” value is on record as “low polyreactivity”.

On to “QVQLVESGGGLVQAGGSLRLSCAASGRTFVPDVMGWYRQAPGKERELVAAITSGGSTYYADSVKGRFTISRDNAKNTVYLQMNSLKPEDTAVYYCAKRTSWKYGYWGQGTQVTVSS”, for which the “polyreactivity (PSR sort gate)” value was “high polyreactivity”.

Take “QVQLVESGGGLVQAGGSLRLSCAASGRIFLVNAMGWYRQAPGKERELVAAINGSGGSTYYADSVKGRFTISRDNAKNTVYLQMNSLKPEDTAVYYCAAKYVYSVGNYRYDYWGQGTQVTVSS”: the “polyreactivity (PSR sort gate)” value was “low polyreactivity”.

The values above are taken from the nanobody polyreactivity screen of Harvey et al. (2022).
